Assay results from US20250289899A1 (Genmab, published 2025).

Key:
[1] = target: T1, human CD27, full length, on cells (T cells, transfected HEK293F cells, Daudi cells, NFκB-luc2/CD27 Jurkat … (human, UniProt P26842 20-240)); test: flow cytometry on CD4+ T cells in human PBMC, FITC goat anti-human IgG F(ab')2, median FITC
T1 construct: Residues 1-19 are stated to be the signal peptide; also called TNFRSF7
T1 sequence: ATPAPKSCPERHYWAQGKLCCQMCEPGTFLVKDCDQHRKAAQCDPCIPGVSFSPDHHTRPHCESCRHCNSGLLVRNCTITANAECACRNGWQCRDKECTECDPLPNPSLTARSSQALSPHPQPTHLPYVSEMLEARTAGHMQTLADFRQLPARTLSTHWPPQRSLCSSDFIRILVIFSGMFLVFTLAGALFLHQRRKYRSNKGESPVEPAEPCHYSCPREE
Experimental: (§1) Binding of IgG1-CD27-A-P329R-E345R to CD27 on human healthy donor T cells was characterized in more detail using flow cytometry. Anti-HIV gp120 antibody variant IgG1-b12-P329R-E345R was used as non-binding control antibody (ctrl). Human PBMCs were isolated from buffy coats obtained from human healthy donors. PBMC (1×10⁵ cells/well) in FACS buffer were added to polystyrene 96-well round-bottom plates (Greiner bio-one, Cat #650101) and pelleted by centrifugation at 300×g for 3 min at 4° C. The cells were resuspended in 50 μL/well serial antibody dilutions in FACS buffer (range 0.0015 to 10 μg/mL in 3-fold dilution steps) and incubated for 30 min at 4° C. Cells were pelleted, washed twice with FACS buffer and incubated in 50 μL/well with FITC-conjugated secondary antibody (FITC AffiniPure F(ab′)₂ fragment goat anti-human IgG, F(ab′)₂ fragment specific, Jackson ImmunoResearch, Cat #109-096-097, diluted 1:100) for 30 min at 4° C. in the dark. […] The samples were measured by flow cytometry on an LSRFortessa (BD) flow cytometer and analyzed using FlowJo software. Binding curves were analyzed using non-linear regression (sigmoidal dose-response with variable slope) using GraphPad Prism 8 software.

[2] = target: T1, human CD27, full length, on cells (T …); test: flow cytometry on CD8+ T cells in human PBMC, FITC goat anti-human IgG F(ab')2, median FITC
Experimental: as §1

[3] = target: T2, recombinant His-tagged human FcγRIIa (167-His [H]) (human, UniProt P12318 34-218, limits assumed); test: SPR (Biacore), His-tagged FcγRIIa-H captured on anti-His chip, antibody in solution, resonance units against antibody concentration
T2 construct: Bought; captured on anti-His chip; also called FcγRIIa-H; not shown: His tag
T2 sequence (looked up): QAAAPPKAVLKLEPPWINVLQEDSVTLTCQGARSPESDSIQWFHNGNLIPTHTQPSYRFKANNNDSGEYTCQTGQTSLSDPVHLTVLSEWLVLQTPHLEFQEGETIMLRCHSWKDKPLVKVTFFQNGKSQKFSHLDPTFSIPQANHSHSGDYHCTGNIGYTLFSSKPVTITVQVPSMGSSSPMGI

[4] = target: T3, recombinant His-tagged human FcγRIIa (167-Arg [R]) (human, UniProt P12318 34-218, limits assumed); test: SPR (Biacore), His-tagged FcγRIIa-R captured on anti-His chip, antibody in solution, resonance units against antibody concentration
T3 construct: Bought; captured on anti-His chip; also called FcγRIIa-R; not shown: His tag
T3 sequence (looked up): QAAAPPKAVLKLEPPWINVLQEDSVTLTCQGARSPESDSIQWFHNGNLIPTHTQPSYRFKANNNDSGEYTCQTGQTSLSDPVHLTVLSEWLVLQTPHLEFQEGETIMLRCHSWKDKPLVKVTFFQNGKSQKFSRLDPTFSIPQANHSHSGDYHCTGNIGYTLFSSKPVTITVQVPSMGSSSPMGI

[5] = target: T4, recombinant His-tagged human FcγRIIIa (176-Phe [F]) (human, UniProt P08637 17-208); test: SPR (Biacore), His-tagged FcγRIIIa-F captured on anti-His chip, antibody in solution, resonance units against antibody concentration
T4 construct: Bought; captured on anti-His chip; also called FcγRIIIa-F; not shown: His tag
T4 sequence (P08637 17-208 limits assumed): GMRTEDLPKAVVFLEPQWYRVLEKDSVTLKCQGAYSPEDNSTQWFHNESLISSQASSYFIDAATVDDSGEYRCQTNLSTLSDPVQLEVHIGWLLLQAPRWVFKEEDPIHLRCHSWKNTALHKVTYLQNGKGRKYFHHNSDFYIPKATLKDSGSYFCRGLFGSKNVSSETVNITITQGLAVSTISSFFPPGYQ

B1: IgG1-CD27-A-P329R-E345R (antibody)
heavy: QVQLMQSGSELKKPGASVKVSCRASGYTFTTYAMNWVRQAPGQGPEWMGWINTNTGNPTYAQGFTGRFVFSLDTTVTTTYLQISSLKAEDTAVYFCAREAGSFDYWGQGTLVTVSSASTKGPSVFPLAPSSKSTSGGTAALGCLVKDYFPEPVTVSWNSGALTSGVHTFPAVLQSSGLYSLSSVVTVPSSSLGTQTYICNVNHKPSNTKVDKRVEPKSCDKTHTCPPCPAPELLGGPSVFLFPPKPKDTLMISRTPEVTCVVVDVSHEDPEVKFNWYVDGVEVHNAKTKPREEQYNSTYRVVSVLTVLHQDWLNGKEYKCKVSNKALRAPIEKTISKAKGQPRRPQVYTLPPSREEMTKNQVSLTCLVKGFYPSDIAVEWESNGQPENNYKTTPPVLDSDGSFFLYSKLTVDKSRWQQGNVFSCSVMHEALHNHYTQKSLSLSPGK
light: QSALTQPASVSGSPGQSITISCTGTSSDVYYYNYVSWYQQHPGRAPKLVIYDVSNRPSGVSNRFSGSKSGNTASLTISGLRAEDEADYYCSSYTVNRVWVFGGGTKLTVLGQPKAAPSVTLFPPSSEELQANKATLVCLISDFYPGAVTVAWKADSSPVKAGVETTTPSKQSNNKYAASSYLSLTPEQWKSHRSYSCQVTHEGSTVEKTVAPTECS
notes: also called IgG1-CD27-A-E345R-P329R
- EC50 (read off the curve) [1]: ~0.03 µg/mL
- EC50 (read off the curve) [2]: ~0.03 µg/mL
- binding result [3]: no binding (tested: 10,000 nM)
- binding result [4]: no binding (tested: 10,000 nM)
- binding result [5]: no binding (tested: 10,000 nM)
